Assay results reported in paper PMC2702170, “DNA Structure Modulates the Oligomerization Properties of the AAV Initiator Protein Rep68” (PLoS Pathogens, 2009).
Where a chain is given by its changes, count along the chain named. Names may count otherwise.

Columns and labels:
[1] = biological target: the molecule itself; assay: cryo-EM structure; Rep68-heteroduplex complex purified by size-exclusion chromatography; 2D classification of a limited number of end views
[2] = biological target: the molecule itself; assay: cryo-EM structure; Rep68-ssDNA complex purified on Superose 6, about 0.4 mg/ml; 0.05% n-octyl β-D-glucopyranoside for side views; reference-free 2D alignment and classification only (no 3D map)
[3] = biological target: the molecule itself; assay: AUC; with RBS dsDNA; sedimentation velocity (Rep68 1 mg/ml, 2.8 µM RBS dsDNA, buffer A, 45,000 rpm, 20°C) and sedimentation equilibrium (complex purified by gel filtration, OD260 0.25 or 0.75; 4,000, 5,000 and 7,000 rpm, 20°C)
[4] = biological target: the molecule itself; assay: SEC; Superose 6 10/300 GL, buffer A (25 mM Tris-HCl pH 8.0, 200 mM NaCl, 5% glycerol, 1 mM TCEP); Rep protein 16.6 µM incubated with 2.8 µM ssDNA (polydT25) 30 min on ice; also with 1 mM ATP, ATP/CaCl2 or ATP/MgCl2 added (same complex)
Rep40 [5] = biological target: T1, Rep40 (Adeno-associated virus 2 (AAV2), UniProt Q89269 1-312); assay: fluorescence anisotropy; Anisotropy: 20 mM HEPES pH 7.5, 50 mM NaCl, 5 nM DNA, 20 C, 15 min. SEC: 25 mM Tris-HCl pH 8.0 (4 C), 200 mM NaCl, 5% glycerol, 1 mM TCEP, 16.6 uM protein, 30 min on ice; details: protein: recombinant; label: 5' 6-carboxyfluorescein
T1 sequence: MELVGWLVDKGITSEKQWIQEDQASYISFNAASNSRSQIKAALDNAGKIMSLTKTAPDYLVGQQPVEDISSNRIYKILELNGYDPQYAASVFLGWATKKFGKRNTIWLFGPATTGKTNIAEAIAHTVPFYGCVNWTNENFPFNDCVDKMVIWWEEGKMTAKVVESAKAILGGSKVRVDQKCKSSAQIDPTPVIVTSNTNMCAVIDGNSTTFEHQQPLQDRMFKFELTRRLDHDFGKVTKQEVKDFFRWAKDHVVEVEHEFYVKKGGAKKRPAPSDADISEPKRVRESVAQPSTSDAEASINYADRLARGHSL

OID (OID-N208) [6] = biological target: T2, OID (OID-N208) (Adeno-associated virus 2 (AAV2), UniProt P03132 1-208); assay: as above; details: protein: recombinant; chain copies: 2; label: 5' 6-carboxyfluorescein
Rep68 [7] = biological target: T3, Rep68 (Adeno-associated virus 2 (AAV2), UniProt P03132 1-536); assay: as above; details: protein: recombinant; tags: untagged (His6-PreScission tag removed); chain copies: 16; label: 5' 6-carboxyfluorescein
Rep40 [8] = biological target: T1, Rep40; assay: size exclusion chromatography; 2.8 or 16.6 uM ssDNA, 200 mM NaCl; ssDNA elutes free; Anisotropy: 20 mM HEPES pH 7.5, 50 mM NaCl, 5 nM DNA, 20 C, 15 min. SEC: 25 mM Tris-HCl pH 8.0 (4 C), 200 mM NaCl, 5% glycerol, 1 mM TCEP, 16.6 uM protein, 30 min on ice; details: protein: recombinant
OID (OID-N208) [9] = biological target: T2, OID (OID-N208); assay: as above; details: protein: recombinant; chain copies: 2
Rep68 [10] = biological target: T3, Rep68; assay: size exclusion chromatography; sedimentation velocity; SAXS; cryo-EM; no nucleotide; apparent ~2.3 MDa; Anisotropy: 20 mM HEPES pH 7.5, 50 mM NaCl, 5 nM DNA, 20 C, 15 min. SEC: 25 mM Tris-HCl pH 8.0 (4 C), 200 mM NaCl, 5% glycerol, 1 mM TCEP, 16.6 uM protein, 30 min on ice; details: protein: recombinant; tags: untagged (His6-PreScission tag removed); chain copies: 16
His-Rep68 WT = His-Rep68 WT (Adeno-associated virus 2 (AAV2), UniProt P03132 1-536); assay: size exclusion chromatography; somewhat less efficient than untagged; Anisotropy: 20 mM HEPES pH 7.5, 50 mM NaCl, 5 nM DNA, 20 C, 15 min. SEC: 25 mM Tris-HCl pH 8.0 (4 C), 200 mM NaCl, 5% glycerol, 1 mM TCEP, 16.6 uM protein, 30 min on ice; details: protein: recombinant; tags: N-terminal His6-PreScission site; chain copies: 16
Rep68 [11] = biological target: T3, Rep68; assay: size exclusion chromatography; sedimentation velocity; SAXS; apparent ~578 kDa; five Rep68 subunits; Anisotropy: 20 mM HEPES pH 7.5, 50 mM NaCl, 5 nM DNA, 20 C, 15 min. SEC: 25 mM Tris-HCl pH 8.0 (4 C), 200 mM NaCl, 5% glycerol, 1 mM TCEP, 16.6 uM protein, 30 min on ice; details: protein: recombinant; tags: untagged (His6-PreScission tag removed); chain copies: 5; blunt
OID (OID-N208) [12] = biological target: T2, OID (OID-N208); assay: size exclusion chromatography; 2.8 or 16.6 uM RBS dsDNA, 200 mM NaCl; Anisotropy: 20 mM HEPES pH 7.5, 50 mM NaCl, 5 nM DNA, 20 C, 15 min. SEC: 25 mM Tris-HCl pH 8.0 (4 C), 200 mM NaCl, 5% glycerol, 1 mM TCEP, 16.6 uM protein, 30 min on ice; details: protein: recombinant; chain copies: 2; blunt

B1: Rep68 (adeno-associated virus 2), non-tagged (natural protein)
chain: MPGFYEIVIKVPSDLDGHLPGISDSFVNWVAEKEWELPPDSDMDLNLIEQAPLTVAEKLQRDFLTEWRRVSKAPEALFFVQFEKGESYFHMHVLVETTGVKSMVLGRFLSQIREKLIQRIYRGIEPTLPNWFAVTKTRNGAGGGNKVVDECYIPNYLLPKTQPELQWAWTNMEQYLSACLNLTERKRLVAQHLTHVSQTQEQNKENQNPNSDAPVIRSKTSARYMELVGWLVDKGITSEKQWIQEDQASYISFNAASNSRSQIKAALDNAGKIMSLTKTAPDYLVGQQPVEDISSNRIYKILELNGYDPQYAASVFLGWATKKFGKRNTIWLFGPATTGKTNIAEAIAHTVPFYGCVNWTNENFPFNDCVDKMVIWWEEGKMTAKVVESAKAILGGSKVRVDQKCKSSAQIDPTPVIVTSNTNMCAVIDGNSTTFEHQQPLQDRMFKFELTRRLDHDFGKVTKQEVKDFFRWAKDHVVEVEHEFYVKKGGAKKRPAPSDADISEPKRVRESVAQPSTSDAEASINYADRLARGHSL
notes: Rep68 protein of adeno-associated virus 2 (AAV2), GenBank AAC03774; Expressed as His6-PreScission site-Rep68; the His-PP tag was removed with PreScission protease; also called untagged Rep68; non-tagged Rep68; source: E. coli BL21(DE3)pLysS, purified (Ni column, PreScission cleavage, second Ni column, Superdex 200 gel filtration); not shown: His6, N-terminal, cleaved
With B1 as the binder, how does the “stoichiometry N” value [1] read?
The value was 8.

What about the “stoichiometry N” value [2] of the same binder?
Its value is 16.

What about the “stoichiometry N” value [3] of the same binder?
The value was 5.

B2: His-Rep68 K404A (natural protein)
chain: B1 chain with K404A
notes: Rep68 protein of adeno-associated virus 2 (AAV2), GenBank AAC03774, with K404A; source: E. coli BL21(DE3)pLysS, purified (Ni column, Superdex 200 gel filtration); not shown: His6, N-terminal, kept
Does B2 bind [4]?
Result: binds

B3: His-Rep68 K406A (natural protein)
chain: B1 chain with K406A
notes: Rep68 protein of adeno-associated virus 2 (AAV2), GenBank AAC03774, with K406A; source: E. coli BL21(DE3)pLysS, purified (Ni column, Superdex 200 gel filtration); not shown: His6, N-terminal, kept
Does B3 bind [4]?
Result: binds

For TTTTTTTTTTTTTTTTTTTTTTTTTTTTTTTTTTTTTT (ssDNA) [poly-dT38 5'-FAM], which Kd (Rep40 [5]) is on record?
Its Kd is roughly 3.5 µM.

And the Kd (OID (OID-N208) [6])?
Its Kd is roughly 130 nM.

And the Kd (Rep68 [7])?
Its Kd is 23 nM.

Does TTTTTTTTTTTTTTTTTTTTTTTTT (ssDNA) [poly-dT25 ssDNA] bind (Rep40 [8])?
Result: no binding

Does TTTTTTTTTTTTTTTTTTTTTTTTT (ssDNA) [poly-dT25 ssDNA] bind (OID (OID-N208) [9])?
Result: no binding

Does TTTTTTTTTTTTTTTTTTTTTTTTT (ssDNA) [poly-dT25 ssDNA] bind (Rep68 [10])?
Result: binds

Does TTTTTTTTTTTTTTTTTTTTTTTTT (ssDNA) [poly-dT25 ssDNA] bind (His-Rep68 WT)?
Result: binds

B4: RBS dsDNA (JM-2/JM-20) (dsDNA)
DNA 1: GCCTCAGTGAGCGAGCGAGCGCGCAGAG
DNA 2: CTCTGCGCGCTCGCTCGCTCACTGAGGC
Which results are given for B4?
binding result (Rep68 [11]): binds; binding result (OID (OID-N208) [12]): binds
